Test results as given in PMC7664933, “Enzyme Properties of a Laccase Obtained from the Transcriptome of the Marine-Derived Fungus Stemphylium lucomagnoense” (International Journal of Molecular Sciences, 2020).

How the values were obtained:
Assay in all cases: spectrophotometric oxidation assay, Michaelis-Menten fit
Format in all cases: biochemical, Stemphylium lucomagnoense
[1] = substrate: CCn1c(=NN=c2sc3cc(S(=O)(=O)O)ccc3n2CC)sc2cc(S(=O)(=O)O)ccc21; conditions: 50 mM sodium acetate, pH 4.0, 30 °C, free enzyme, pH 4.0
Excerpt: (§1) spectrophotometric oxidation assay, Michaelis-Menten fit on SlLac2

[2] = substrate: COc1cc(C=NN=Cc2cc(OC)c(O)c(OC)c2)cc(OC)c1O; conditions: 50 mM sodium acetate, pH 6.0, 30 °C, free enzyme, pH 6.0
Excerpt: as §1

[3] = substrate: COc1cccc(OC)c1O; conditions: 50 mM sodium acetate, pH 5.0, 30 °C, free enzyme, pH 5.0
Excerpt: as §1

B1: SlLac2 (Stemphylium lucomagnoense) (protein)
chain: AVLPVELPNPAPFTPKRDGLEERQSPASCINVGHTPKTRHCWAQGFTSSTDMYTSWPNTGVIRSYNLRLENTTCNPDGAGSRVCLLINGRFLGPTIVANWGDTIRVTVRNNLQSNGTSIHWHGFRMLNKNIQDGVNGITECALAPGDFKTYQFQATEYGTTWYHSHFSHQYGDGVVGTVIVNGPATANYDEDLGVMPITDWYYNTAFQAASIAFQNGQAGLGPPVGDNILINGTAKNAAGGGAWNRVTIQAGKRYRLRLVNTAVDTNMLVNLDGHPFQVIATDFVPINPYNTTHLQIGIGQRYDVIINANQTAGNYWFRATADGLCQSRNAREGRAIFTYQGQPVADPTSTAPTVPFTACLDPVTTPKIVKNVPSSTFAAQAKNLPVAFGPVAANGNTVLWTINGTSMIIDPGKPTIKYVAENNNSFPQSYNVVKVPATSASTWTYWVIQQAVGAPPIAHPIHLHGHDSYILGAGDGQFNAATHFSQLRFTNPPRRDVSQLKGNGWLVIAYPTDNPGAWLMHCHIAFHVGMGLSVQFLERKQQIVLPATGSEWYNNCNNWAAYKAGNTDVWPQDDSGLKKRWPPLIEDGSVL
notes: full-length mature laccase (592 residues; precursor 613 with 21-residue signal peptide replaced by A. niger glucoamylase 24-residue prepropeptide, correctly cleaved off); codon-optimised synthetic gene; secreted from Aspergillus niger D15#26; no tag; N-glycosylated, about 75 kDa by SDS-PAGE
- Km [1]: 20.6 ± 3.9 µM
- kcat [1]: 0.153 ± 0.0026 s⁻¹
- kcat/Km [1]: 7420 M⁻¹ s⁻¹
- Km [2]: 3.5 ± 0.57 µM
- kcat [2]: 0.0074 ± 0.0002 s⁻¹
- kcat/Km [2]: 2110 M⁻¹ s⁻¹
- Km [3]: 24 ± 3.9 µM
- kcat [3]: 0.0059 ± 0.0003 s⁻¹
- kcat/Km [3]: 240 M⁻¹ s⁻¹
